Key:
HLA-A*24:03 = assay: IEDB peptide-MHC binding, purified MHC/direct/fluorescence; filed as Kd, often an IC50 or EC50 that approximates it; ≥ and ≤ were set here for values at or beyond the usual limits of such assays
HLA-A*02:16 = assay: as above
HLA-A*02:03 = assay: as above
HLA-A*26:01 = assay: as above
HLA-A*02:19 = assay: as above
HLA-A*68:02 [1] = assay: as above
HLA-A*02:12 = assay: as above
HLA-A*02:11 = assay: as above
HLA-A*23:01 = assay: as above
HLA-A*03:01 = assay: as above
HLA-A*29:02 = assay: as above; details: source organism: Orthohantavirus andesense
HLA-B*35:01 = assay: IEDB peptide-MHC binding, purified MHC/competitive/fluorescence; filed as Kd, often an IC50 or EC50 that approximates it; ≥ and ≤ were set here for values at or beyond the usual limits of such assays
HLA-B*18:01 [2] = assay: as above; details: source organism: Orthohantavirus andesense
HLA-B*57:01 [3] = assay: as above; details: source organism: Orthohantavirus andesense
HLA-A*69:01 [4] = assay: as above
HLA-B*51:01 = assay: as above
HLA-B*27:03 [5] = assay: as above
HLA-B*39:01 [6] = assay: as above
HLA-B*46:01 [7] = assay: as above; details: source organism: Orthohantavirus andesense
HLA-A*02:01 [8] = assay: as above
HLA-A*01:01 = assay: IEDB peptide-MHC binding, purified MHC/direct/fluorescence; filed as Kd, often an IC50 or EC50 that approximates it; ≥ and ≤ were set here for values at or beyond the usual limits of such assays
HLA-B*07:02 = assay: as above
HLA-B*57:01 [9] = assay: as above
HLA-A*69:01 [10] = assay: as above
HLA-B*08:01 [11] = assay: as above; details: source organism: Coxiella burnetii Q321
HLA-B*27:05 = assay: as above
HLA-B*48:01 = assay: as above
HLA-B*40:01 = assay: as above
HLA-B*39:01 [12] = assay: as above
HLA-A*31:01 = assay: as above
HLA-A*11:01 = assay: as above
HLA-B*58:01 = assay: as above
HLA-A*02:01 [13] = assay: as above
HLA-B*15:01 = assay: as above
HLA-B*44:02 = assay: as above
HLA-B*15:09 = assay: IEDB peptide-MHC binding, purified MHC/competitive/fluorescence; filed as Kd, often an IC50 or EC50 that approximates it; ≥ and ≤ were set here for values at or beyond the usual limits of such assays
HLA-A*68:02 [14] = assay: as above; details: source organism: Coxiella burnetii RSA 331
HLA-B*15:17 [15] = assay: as above; details: source organism: Coxiella burnetii RSA 331
HLA-B*18:01 [16] = assay: IEDB peptide-MHC binding, purified MHC/direct/fluorescence; filed as Kd, often an IC50 or EC50 that approximates it; ≥ and ≤ were set here for values at or beyond the usual limits of such assays
HLA-B*15:17 [17] = assay: as above
HLA-B*08:01 [18] = assay: IEDB peptide-MHC binding, purified MHC/competitive/fluorescence; filed as Kd, often an IC50 or EC50 that approximates it; ≥ and ≤ were set here for values at or beyond the usual limits of such assays; details: source organism: Brucella canis ATCC 23365
HLA-B*27:03 [19] = assay: IEDB peptide-MHC binding, purified MHC/direct/fluorescence; filed as Kd, often an IC50 or EC50 that approximates it; ≥ and ≤ were set here for values at or beyond the usual limits of such assays; details: source organism: Giardia lamblia ATCC 50803
HLA-B*46:01 [20] = assay: as above; details: source organism: Giardia lamblia ATCC 50803
[21] = source organism: Orthohantavirus andesense
[22] = source organism: Coxiella burnetii
[23] = source organism: Coxiella burnetii RSA 331
[24] = source organism: Brucella abortus 2308
[25] = source organism: Brucella canis ATCC 23365
[26] = source organism: Ebola virus - Gabon (1994-1997)
[27] = source organism: Zaire ebolavirus
[28] = source organism: Giardia lamblia ATCC 50803

DAVEDFLAF
Kd (HLA-A*24:03; [21]): ≥ 20 µM
Kd (HLA-A*02:16; [21]): ≥ 20 µM
Kd (HLA-A*02:03; [21]): ≥ 20 µM
Kd (HLA-A*26:01; [21]): 0.0126 µM
Kd (HLA-A*02:19; [21]): ≥ 20 µM
Kd (HLA-A*68:02 [1]; [21]): ≥ 20 µM
Kd (HLA-A*02:12; [21]): ≥ 20 µM
Kd (HLA-A*02:11; [21]): ≥ 20 µM
Kd (HLA-A*23:01; [21]): ≥ 20 µM
Kd (HLA-A*03:01; [21]): ≥ 20 µM
Kd (HLA-A*29:02): ≥ 20 µM
Kd (HLA-B*35:01; [21]): ≤ 0.0001 µM
Kd (HLA-B*18:01 [2]): ≥ 20 µM
Kd (HLA-B*57:01 [3]): ≥ 20 µM
Kd (HLA-A*69:01 [4]; [21]): ≥ 20 µM
Kd (HLA-B*51:01; [21]): ≥ 20 µM
Kd (HLA-B*27:03 [5]; [21]): ≥ 20 µM
Kd (HLA-B*39:01 [6]; [21]): ≥ 20 µM
Kd (HLA-B*46:01 [7]): ≥ 20 µM
Kd (HLA-A*02:01 [8]; [21]): ≥ 20 µM

HEGDIVPLF
Kd (HLA-A*01:01; [22]): ≥ 20 µM
Kd (HLA-B*07:02; [22]): ≥ 20 µM
Kd (HLA-B*57:01 [9]; [22]): ≥ 20 µM
Kd (HLA-A*69:01 [10]; [22]): ≥ 20 µM
Kd (HLA-B*08:01 [11]): ≥ 20 µM
Kd (HLA-B*27:05; [22]): ≥ 20 µM
Kd (HLA-B*48:01; [22]): ≥ 20 µM
Kd (HLA-B*40:01; [22]): 0.312 µM
Kd (HLA-B*39:01 [12]; source organism: Coxiella burnetii Q321): ≥ 20 µM
Kd (HLA-A*31:01; [22]): ≥ 20 µM
Kd (HLA-A*11:01; [22]): ≥ 20 µM
Kd (HLA-B*58:01; [22]): ≥ 20 µM
Kd (HLA-A*02:01 [13]; [22]): ≥ 20 µM
Kd (HLA-B*15:01; [22]): 15 µM
Kd (HLA-B*44:02; [22]): 6 µM
Kd (HLA-A*03:01; [22]): ≥ 20 µM
Kd (HLA-B*35:01; [23]): 0.183 µM
Kd (HLA-B*15:09; [23]): ≥ 20 µM
Kd (HLA-A*68:02 [14]): ≥ 20 µM
Kd (HLA-B*15:17 [15]): 0.644 µM

IEVKFHPIL
Kd (HLA-A*01:01; [24]): ≥ 20 µM
Kd (HLA-B*18:01 [16]; [24]): 0.006 µM
Kd (HLA-B*07:02; [24]): ≥ 20 µM
Kd (HLA-B*57:01 [9]; [24]): ≥ 20 µM
Kd (HLA-A*69:01 [10]; [24]): ≥ 20 µM
Kd (HLA-B*27:05; [24]): ≥ 20 µM
Kd (HLA-A*26:01; source organism: Brucella suis 1330): ≥ 20 µM
Kd (HLA-B*48:01; [24]): 0.534 µM
Kd (HLA-B*40:01; [24]): 0.013 µM
Kd (HLA-A*68:02 [1]; [24]): ≥ 20 µM
Kd (HLA-B*15:17 [17]; [24]): ≥ 20 µM
Kd (HLA-A*31:01; [24]): ≥ 20 µM
Kd (HLA-A*11:01; [24]): ≥ 20 µM
Kd (HLA-B*58:01; [24]): ≥ 20 µM
Kd (HLA-A*02:01 [13]; [24]): ≥ 20 µM
Kd (HLA-B*15:01; [24]): ≥ 20 µM
Kd (HLA-B*44:02; [24]): ≥ 20 µM
Kd (HLA-A*03:01; [24]): ≥ 20 µM
Kd (HLA-B*15:09; [25]): 0.0868 µM
Kd (HLA-B*08:01 [18]): 0.811 µM
Kd (HLA-B*39:01 [6]; [25]): 1.06 µM

TAAIMLASY
Kd (HLA-A*01:01; [26]): ≥ 20 µM
Kd (HLA-A*24:03; [27]): ≥ 20 µM
Kd (HLA-A*02:16; [27]): ≥ 20 µM
Kd (HLA-A*02:03; [27]): ≥ 20 µM
Kd (HLA-A*26:01; [26]): 1.29 µM
Kd (HLA-A*02:19; [27]): ≥ 20 µM
Kd (HLA-A*68:02 [1]; [27]): ≥ 20 µM
Kd (HLA-A*02:12; [27]): ≥ 20 µM
Kd (HLA-A*02:11; [27]): ≥ 20 µM
Kd (HLA-A*23:01; [27]): ≥ 20 µM
Kd (HLA-A*03:01; [27]): ≥ 20 µM
Kd (HLA-B*35:01; [27]): 0.0002 µM
Kd (HLA-A*69:01 [4]; [27]): ≥ 20 µM
Kd (HLA-B*51:01; [27]): ≥ 20 µM
Kd (HLA-B*27:03 [5]; [27]): ≥ 20 µM
Kd (HLA-B*39:01 [6]; [27]): ≥ 20 µM
Kd (HLA-A*02:01 [8]; [27]): ≥ 20 µM

VLLISDPGL
Kd (HLA-B*18:01 [16]; [28]): ≥ 20 µM
Kd (HLA-B*57:01 [9]; [28]): ≥ 20 µM
Kd (HLA-A*24:03; [28]): ≥ 20 µM
Kd (HLA-A*69:01 [10]; [28]): ≥ 20 µM
Kd (HLA-A*02:03; [28]): ≥ 20 µM
Kd (HLA-A*26:01; [28]): ≥ 20 µM
Kd (HLA-B*27:03 [19]): ≥ 20 µM
Kd (HLA-B*39:01 [12]; [28]): ≥ 20 µM
Kd (HLA-A*68:02 [1]; [28]): ≥ 20 µM
Kd (HLA-B*15:17 [17]; [28]): 0.254 µM
Kd (HLA-B*46:01 [20]): ≥ 20 µM
Kd (HLA-B*15:01; [28]): ≥ 20 µM
Kd (HLA-A*02:12; [28]): ≥ 20 µM
Kd (HLA-A*02:11; [28]): ≥ 20 µM
Kd (HLA-A*03:01; [28]): ≥ 20 µM
